The record followed here is patent US20210040194A1.

Holding throughout (assay): cell-based or functional assay
Experiment [1] addresses Human ANG-2 (huAng2) (human) (UniProt O15123).
Experiment [2] concerns the target cyno Ang2 (cyno).
In experiment [3] the target is mouse Ang2 (mouse) (UniProt O35608).
Chain of mouse Ang2 (mouse) (O35608 19-496 limits assumed): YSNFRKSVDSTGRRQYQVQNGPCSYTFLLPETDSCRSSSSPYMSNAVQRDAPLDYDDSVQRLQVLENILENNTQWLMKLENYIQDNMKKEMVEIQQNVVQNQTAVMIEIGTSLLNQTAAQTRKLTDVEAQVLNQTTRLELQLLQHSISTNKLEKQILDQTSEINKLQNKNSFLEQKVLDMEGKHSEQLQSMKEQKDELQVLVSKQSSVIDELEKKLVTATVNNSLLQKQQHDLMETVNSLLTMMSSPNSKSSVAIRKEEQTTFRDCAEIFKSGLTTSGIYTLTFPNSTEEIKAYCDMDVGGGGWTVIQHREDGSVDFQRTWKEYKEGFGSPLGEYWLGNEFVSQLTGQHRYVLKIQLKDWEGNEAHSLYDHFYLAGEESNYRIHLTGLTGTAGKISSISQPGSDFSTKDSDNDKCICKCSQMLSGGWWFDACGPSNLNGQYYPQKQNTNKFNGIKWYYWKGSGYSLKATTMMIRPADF

Chain of Human ANG-2 (huAng2) (human) (O15123 19-496 limits assumed): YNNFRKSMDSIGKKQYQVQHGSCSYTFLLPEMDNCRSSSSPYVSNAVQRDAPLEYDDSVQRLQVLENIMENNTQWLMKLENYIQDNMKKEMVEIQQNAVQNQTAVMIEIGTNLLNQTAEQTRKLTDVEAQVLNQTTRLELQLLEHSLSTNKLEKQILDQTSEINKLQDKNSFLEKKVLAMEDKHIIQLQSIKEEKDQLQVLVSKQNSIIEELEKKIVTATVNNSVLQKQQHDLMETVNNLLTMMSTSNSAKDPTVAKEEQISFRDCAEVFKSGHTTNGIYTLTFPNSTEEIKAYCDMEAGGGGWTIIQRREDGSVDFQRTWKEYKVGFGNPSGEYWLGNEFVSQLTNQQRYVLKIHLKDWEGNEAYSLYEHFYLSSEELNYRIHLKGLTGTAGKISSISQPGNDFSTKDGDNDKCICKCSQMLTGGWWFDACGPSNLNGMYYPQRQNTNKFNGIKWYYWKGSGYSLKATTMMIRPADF

In experiment [1], MEDI3617 (antibody) had a Hu pTie2 EC50 (nM), Hek293-Tie2 cells of 2.65 nM. In addition, the Cyno pTie2 EC50 (nM) in experiment [2] amounted to 33.2 nM. The substance further displayed a Mu pTie2 EC50 (nM) in experiment [3] of 137 nM.
